# In the supplement of paper PMC11316812:
# ± gives the standard deviation of the averaged measurements.
# What was measured:
# MCF7 = assay: percentage of EdU-negative (G0-arrested) nuclei per well, 72 h; higher = more G0 arrest; conditions: reference: sequence is the full UniProt precursor, the tested protein was the secreted form or ectodomain
# hTERT-HMEC = assay: as above; conditions: reference: sequence is the full UniProt precursor, the tested protein was the secreted form or ectodomain
# [1] = protein concentration 0.00625 µM
# [2] = protein concentration 0.0625 µM
# [3] = protein concentration 0.0225 µM
# [4] = protein concentration 0.02225 µM
# [5] = protein concentration 0.2225 µM
# [6] = protein concentration 0.03125 µM
# [7] = protein concentration 0.3125 µM
# [8] = protein concentration 0.0165575 µM
# [9] = protein concentration 0.165575 µM
# 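Also: secreted proteins added to cultured cells, EdU pulse at the end, nuclei found by Hoechst imaging, EdU status from nuclear versus surrounding ring intensity ratio, PBS as neutral control.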
sequence,measurement,setting,value
MGKSESQMDITDINTPKPKKKQRWTPLEISLSVLVLLLTIIAVTMIALYATYDDGICKSSDCIKSAARLIQNMDATTEPCTDFFKYACGGWLKRNVIPETSSRYGNFDILRDELEVVLKDVLQEPKTEDIVAVQKAKALYRSCINESAIDSRGGEPLLKLLPDIYGWPVATENWEQKYGASWTAEKAIAQLNSKYGKKVLINLFVGTDDKNSVNHVIHIDQPRLGLPSRDYYECTGIYKEACTAYVDFMISVARLIRQEERLPIDENQLALEMNKVMELEKEIANATAKPEDRNDPMLLYNKMTLAQIQNNFSLEINGKPFSWLNFTNEIMSTVNISITNEEDVVVYAPEYLTKLKPILTKYSARDLQNLMSWRFIMDLVSSLSRTYKESRNAFRKALYGTTSETATWRRCANYVNGNMENAVGRLYVEAAFAGESKHVVEDLIAQIREVFIQTLDDLTWMDAETKKRAEEKALAIKERIGYPDDIVSNDNKLNNEYLELNYKEDEYFENIIQNLKFSQSKQLKKLREKVDKDEWISGAAVVNAFYSSGRNQIVFPAGILQPPFFSAQQSNSLNYGGIGMVIGHEITHGFDDNGRNFNKDGDLVDWWTQQSASNFKEQSQCMVYQYGNFSWDLAGGQHLNGINTLGENIADNGGLGQAYRAYQNYIKKNGEEKLLPGLDLNHKQLFFLNFAQVWCGTYRPEYAVNSIKTDVHSPGNFRIIGTLQNSAEFSEAFHCRKNSYMNPEKKCRVW,percentage of EdU-negative,MCF7; [1],25 ± 1.8%
same,percentage of EdU-negative,MCF7; [2],27.41 ± 0.064%
same,percentage of EdU-negative,hTERT-HMEC; [1],4.08 ± 0.18%
same,percentage of EdU-negative,hTERT-HMEC; [2],5.51 ± 0.24%
MGLEKPQSKLEGGMHPQLIPSVIAVVFILLLSVCFIASCLVTHHNFSRCKRGTGVHKLEHHAKLKCIKEKSELKSAEGSTWNCCPIDWRAFQSNCYFPLTDNKTWAESERNCSGMGAHLMTISTEAEQNFIIQFLDRRLSYFLGLRDENAKGQWRWVDQTPFNPRRVFWHKNEPDNSQGENCVVLVYNQDKWAWNDVPCNFEASRICKIPGTTLN [Q8WXI8],percentage of EdU-negative,MCF7; [3],23.5 ± 0.48%
same,percentage of EdU-negative,MCF7; protein concentration 0.225 µM,25.2 ± 0.46%
same,percentage of EdU-negative,hTERT-HMEC; [3],6.12 ± 0.23%
same,percentage of EdU-negative,hTERT-HMEC; protein concentration 0.225 µM,6.07 ± 0.51%
MGLFRGFVFLLVLCLLHQSNTSFIKLNNNGFEDIVIVIDPSVPEDEKIIEQIEDMVTTASTYLFEATEKRFFFKNVSILIPENWKENPQYKRPKHENHKHADVIVAPPTLPGRDEPYTKQFTECGEKGEYIHFTPDLLLGKKQNEYGPPGKLFVHEWAHLRWGVFDEYNEDQPFYRAKSKKIEATRCSAGISGRNRVYKCQGGSCLSRACRIDSTTKLYGKDCQFFPDKVQTEKASIMFMQSIDSVVEFCNEKTHNQEAPSLQNIKCNFRSTWEVISNSEDFKNTIPMVTPPPPPVFSLLKISQRIVCLVLDKSGSMGGKDRLNRMNQAAKHFLLQTVENGSWVGMVHFDSTATIVNKLIQIKSSDERNTLMAGLPTYPLGGTSICSGIKYAFQVIGELHSQLDGSEVLLLTDGEDNTASSCIDEVKQSGAIVHFIALGRAADEAVIEMSKITGGSHFYVSDEAQNNGLIDAFGALTSGNTDLSQKSLQLESKGLTLNSNAWMNDTVIIDSTVGKDTFFLITWNSLPPSISLWDPSGTIMENFTVDATSKMAYLSIPGTAKVGTWAYNLQAKANPETLTITVTSRAANSSVPPITVNAKMNKDVNSFPSPMIVYAEILQGYVPVLGANVTAFIESQNGHTEVLELLDNGAGADSFKNDGVYSRYFTAYTENGRYSLKVRAHGGANTARLKLRPPLNRAAYIPGWVVNGEIEANPPRPEIDEDTQTTLEDFSRTASGGAFVVSQVPSLPLPDQYPPSQITDLDATVHEDKIILTWTAPGDNFDVGKVQRYIIRISASILDLRDSFDDALQVNTTDLSPKEANSKESFAFKPENISEENATHIFIAIKSIDKSNLTSKVSNIAQVTLFIPQANPDDIDPTPTPTPTPTPDKSHNSGVNISTLVLSVIGSVVIVNFILSTTI [Q14CN2],percentage of EdU-negative,MCF7; [3],26.84 ± 0.26%
same,percentage of EdU-negative,MCF7; protein concentration 0.225 µM,30.6 ± 2%
same,percentage of EdU-negative,hTERT-HMEC; [3],6.239 ± 0.015%
same,percentage of EdU-negative,hTERT-HMEC; protein concentration 0.225 µM,66 ± 6.4%
MGLGPVFLLLAGIFPFAPPGAAAEPHSLRYNLTVLSWDGSVQSGFLTEVHLDGQPFLRCDRQKCRAKPQGQWAEDVLGNKTWDRETRDLTGNGKDLRMTLAHIKDQKEGLHSLQEIRVCEIHEDNSTRSSQHFYYDGELFLSQNLETKEWTMPQSSRAQTLAMNVRNFLKEDAMKTKTHYHAMHADCLQELRRYLKSGVVLRRTVPPMVNVTRSEASEGNITVTCRASGFYPWNITLSWRQDGVSLSHDTQQWGDVLPDGNGTYQTWVATRICQGEEQRFTCYMEHSGNHSTHPVPSGKVLVLQSHWQTFHVSAVAAAAIFVIIIFYVRCCKKKTSAAEGPELVSLQVLDQHPVGTSDHRDATQLGFQPLMSDLGSTGSTEGA,percentage of EdU-negative,MCF7; [4],24.7 ± 0.99%
same,percentage of EdU-negative,MCF7; [5],26.3 ± 1.6%
same,percentage of EdU-negative,hTERT-HMEC; [4],5.41 ± 0.075%
same,percentage of EdU-negative,hTERT-HMEC; [5],6.78 ± 1.8%
MGLGTLSPRMLVWLVASGIVFYGELWVCAGLDYDYTFDGNEEDKTETIDYKDPCKAAVFWGDIALDDEDLNIFQIDRTIDLTQNPFGNLGHTTGGLGDHAMSKKRGALYQLIDRIRRIGFGLEQNNTVKGKVPLQFSGQNEKNRVPRAATSRTERIWPGGVIPYVIGGNFTGSQRAMFKQAMRHWEKHTCVTFIERSDEESYIVFTYRPCGCCSYVGRRGNGPQAISIGKNCDKFGIVVHELGHVIGFWHEHTRPDRDNHVTIIRENIQPGQEYNFLKMEPGEVNSLGERYDFDSIMHYARNTFSRGMFLDTILPSRDDNGIRPAIGQRTRLSKGDIAQARKLYRCPACGETLQESNGNLSSPGFPNGYPSYTHCIWRVSVTPGEKIVLNFTTMDLYKSSLCWYDYIEVRDGYWRKSPLLGRFCGDKLPEVLTSTDSRMWIEFRSSSNWVGKGFAAVYEAICGGEIRKNEGQIQSPNYPDDYRPMKECVWKITVSESYHVGLTFQSFEIERHDNCAYDYLEVRDGTSENSPLIGRFCGYDKPEDIRSTSNTLWMKFVSDGTVNKAGFAANFFKEEDECAKPDRGGCEQRCLNTLGSYQCACEPGYELGPDRRSCEAACGGLLTKLNGTITTPGWPKEYPPNKNCVWQVVAPTQYRISVKFEFFELEGNEVCKYDYVEIWSGLSSESKLHGKFCGAEVPEVITSQFNNMRIEFKSDNTVSKKGFKAHFFSDKDECSKDNGGCQHECVNTMGSYMCQCRNGFVLHDNKHDCKEAECEQKIHSPSGLITSPNWPDKYPSRKECTWEISATPGHRIKLAFSEFEIEQHQECAYDHLEVFDGETEKSPILGRLCGNKIPDPLVATGNKMFVRFVSDASVQRKGFQATHSTECGGRLKAESKPRDLYSHAQFGDNNYPGQVDCEWLLVSERGSRLELSFQTFEVEEEADCGYDYVELFDGLDSTAVGLGRFCGSGPPEEIYSIGDSVLIHFHTDDTINKKGFHIRYKSIRYPDTTHTKK,percentage of EdU-negative,MCF7; protein concentration 0.014 µM,24.6 ± 2.5%
same,percentage of EdU-negative,MCF7; protein concentration 0.14 µM,29.6 ± 1.9%
same,percentage of EdU-negative,hTERT-HMEC; protein concentration 0.014 µM,4.501 ± 0.026%
same,percentage of EdU-negative,hTERT-HMEC; protein concentration 0.14 µM,5.35 ± 1.3%
MGLHLRPYRVGLLPDGLLFLLLLLMLLADPALPAGRHPPVVLVPGDLGNQLEAKLDKPTVVHYLCSKKTESYFTIWLNLELLLPVIIDCWIDNIRLVYNKTSRATQFPDGVDVRVPGFGKTFSLEFLDPSKSSVGSYFHTMVESLVGWGYTRGEDVRGAPYDWRRAPNENGPYFLALREMIEEMYQLYGGPVVLVAHSMGNMYTLYFLQRQPQAWKDKYIRAFVSLGAPWGGVAKTLRVLASGDNNRIPVIGPLKIREQQRSAVSTSWLLPYNYTWSPEKVFVQTPTINYTLRDYRKFFQDIGFEDGWLMRQDTEGLVEATMPPGVQLHCLYGTGVPTPDSFYYESFPDRDPKICFGDGDGTVNLKSALQCQAWQSRQEHQVLLQELPGSEHIEMLANATTLAYLKRVLLGP [Q8NCC3],percentage of EdU-negative,MCF7; [3],25.3 ± 2.1%
same,percentage of EdU-negative,MCF7; protein concentration 0.225 µM,24.9 ± 0.58%
same,percentage of EdU-negative,hTERT-HMEC; [3],4.6 ± 0.49%
same,percentage of EdU-negative,hTERT-HMEC; protein concentration 0.225 µM,6.68 ± 0.68%
MGLIWLLLLSLLEPGWPAAGPGARLRRDAGGRGGVYEHLGGAPRRRKLYCATKYHLQLHPSGRVNGSLENSAYSILEITAVEVGIVAIRGLFSGRYLAMNKRGRLYASEHYSAECEFVERIHELGYNTYASRLYRTVSSTPGARRQPSAERLWYVSVNGKGRPRRGFKTRRTQKSSLFLPRVLDHRDHEMVRQLQSGLPRPPGKGVQPRRRRQKQSPDNLEPSHVQASRLGSQLEASAH,percentage of EdU-negative,MCF7; protein concentration 0.01 µM,26.1 ± 0.46%
same,percentage of EdU-negative,MCF7; protein concentration 0.1 µM,27.4 ± 0.42%
same,percentage of EdU-negative,hTERT-HMEC; protein concentration 0.01 µM,5.1 ± 0.81%
same,percentage of EdU-negative,hTERT-HMEC; protein concentration 0.1 µM,6.93 ± 0.14%
MGLLLPLALCILVLCCGAMSPPQLALNPSALLSRGCNDSDVLAVAGFALRDINKDRKDGYVLRLNRVNDAQEYRRGGLGSLFYLTLDVLETDCHVLRKKAWQDCGMRIFFESVYGQCKAIFYMNNPSRVLYLAAYNCTLRPVSKKKIYMTCPDCPSSIPTDSSNHQVLEAATESLAKYNNENTSKQYSLFKVTRASSQWVVGPSYFVEYLIKESPCTKSQASSCSLQSSDSVPVGLCKGSLTRTHWEKFVSVTCDFFESQAPATGSENSAVNQKPTNLPKVEESQQKNTPPTDSPSKAGPRGSVQYLPDLDDKNSQEKGPQEAFPVHLDLTTNPQGETLDISFLFLEPMEEKLVVLPFPKEKARTAECPGPAQNASPLVLPP [Q9UGM5],percentage of EdU-negative,MCF7; [6],26.5 ± 2.8%
same,percentage of EdU-negative,MCF7; [7],27.9 ± 0.97%
same,percentage of EdU-negative,hTERT-HMEC; [6],5.24 ± 0.29%
same,percentage of EdU-negative,hTERT-HMEC; [7],7.43 ± 0.49%
MGLLSAPPCTQRITWKGLLLTASLLNFWNPPTTAQVTIEAQPTKVSEGKDVLLLVHNLPQNLTGYIWYKGQIRDLYHYITSYVVDGQIIIYGPAYSGRETIYSNASLLIQNVTQEDAGSYTLHIIMGGDENRGVTGHFTFTLYLETPKPSISSSKLNPREAMEAVSLTCDPETPDASYLWWMNGQSLPMSHRLQLSETNRTLFLLGVTKYTAGPYECEIRNPVSASRSDPFTLNLLPKLPKPYITINNLKPRENKDVLNFTCEPKSENYTYIWWLNGQSLPVSPRVKRPIENRILILPSVTRNETGPYQCEIRDQYGGIRSYPVTLNVLYGPDLPRIYPSFTYYRSGEVLYLSCSADSNPPAQYSWTINGKFQLSGQKLFIPQITTKHSGLYACSVRNSATGKESSKSMTVKVSGKRIPVSLAIGI [Q9UQ74],percentage of EdU-negative,MCF7; [8],26.7 ± 1%
same,percentage of EdU-negative,MCF7; [9],31.5 ± 1.5%
same,percentage of EdU-negative,hTERT-HMEC; [8],4.16 ± 0.38%
same,percentage of EdU-negative,hTERT-HMEC; [9],6.44 ± 0.53%
MGLQACLLGLFALILSGKCSYSPEPDQRRTLPPGWVSLGRADPEEELSLTFALRQQNVERLSELVQAVSDPSSPQYGKYLTLENVADLVRPSPLTLHTVQKWLLAAGAQKCHSVITQDFLTCWLSIRQAELLLPGAEFHHYVGGPTETHVVRSPHPYQLPQALAPHVDFVGGLHRFPPTSSLRQRPEPQVTGTVGLHLGVTPSVIRKRYNLTSQDVGSGTSNNSQACAQFLEQYFHDSDLAQFMRLFGGNFAHQASVARVVGQQGRGRAGIEASLDVQYLMSAGANISTWVYSSPGRHEGQEPFLQWLMLLSNESALPHVHTVSYGDDEDSLSSAYIQRVNTELMKAAARGLTLLFASGDSGAGCWSVSGRHQFRPTFPASSPYVTTVGGTSFQEPFLITNEIVDYISGGGFSNVFPRPSYQEEAVTKFLSSSPHLPPSSYFNASGRAYPDVAALSDGYWVVSNRVPIPWVSGTSASTPVFGGILSLINEHRILSGRPPLGFLNPRLYQQHGAGLFDVTRGCHESCLDEEVEGQGFCSGPGWDPVTGWGTPNFPALLKTLLNP,percentage of EdU-negative,MCF7; [3],25.3 ± 1.4%
same,percentage of EdU-negative,MCF7; protein concentration 0.225 µM,27.9 ± 4.2%
same,percentage of EdU-negative,hTERT-HMEC; [3],5.11 ± 0.24%
same,percentage of EdU-negative,hTERT-HMEC; protein concentration 0.225 µM,10.72 ± 0.011%
